According to article PMC9272907, “Penpulimab, an Fc-Engineered IgG1 Anti-PD-1 Antibody, With Improved Efficacy and Low Incidence of Immune-Related Adverse Events” (Frontiers in Immunology, 2022):
Each block holds one binder with its values, some of them ahead of it.

Tests used:
FcγRIa (human) = FcγRIa (human) (UniProt P12314); assay: BLI; ForteBio Octet QKe; FcγRIa immobilised on HIS1K sensor; antibody 50 nM to 3.12 nM in solution; 120 s binding and 120 s dissociation
FcγRIIIa_V158 (human) = assay: BLI; ForteBio Octet QKe; FcγRIIIa_F158 or FcγRIIIa_V158 (5 μg/mL) immobilised on HIS1K sensor; antibody 500 nM to 31.25 nM in solution; 60 s binding and 60 s dissociation
FcγRIIa_H131 (human) = FcγRIIa_H131 (human) (UniProt P12318); assay: BLI; ForteBio Octet QKe; FcγRIIa_R131 or FcγRIIa_H131 immobilised on NTA sensor; antibody 200 nM to 12.5 nM in solution; 60 s binding and 60 s dissociation
FcγRIIa_R131 (human) = assay: as above
[1] = target: T1, human PD-1 extracellular domain fused to human IgG Fc domain (PD-1-hFc) (Homo sapiens, UniProt Q15116); assay: SPR; Biacore T200; PD-1-hFc immobilised on CM5 chip; antibody 50 nM to 1.56 nM flowed; 180 s binding, 420 s dissociation; conditions: both partners purified
T1 construct: human programmed cell death protein 1 (PD-1), extracellular domain

FcγRIIIa_F158 (human) = FcγRIIIa_F158 (human) (UniProt P08637); assay: BLI; ForteBio Octet QKe; FcγRIIIa_F158 or FcγRIIIa_V158 (5 μg/mL) immobilised on HIS1K sensor; antibody 500 nM to 31.25 nM in solution; 60 s binding and 60 s dissociation
Sequence of FcγRIIIa_F158 (human) (P08637 17-254): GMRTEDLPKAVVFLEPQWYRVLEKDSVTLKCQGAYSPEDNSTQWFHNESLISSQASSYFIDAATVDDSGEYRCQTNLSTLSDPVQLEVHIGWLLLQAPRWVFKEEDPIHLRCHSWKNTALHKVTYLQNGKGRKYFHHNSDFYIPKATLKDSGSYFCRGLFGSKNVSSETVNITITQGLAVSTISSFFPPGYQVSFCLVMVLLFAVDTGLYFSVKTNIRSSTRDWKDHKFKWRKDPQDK

T1 sequence (Q15116 25-170): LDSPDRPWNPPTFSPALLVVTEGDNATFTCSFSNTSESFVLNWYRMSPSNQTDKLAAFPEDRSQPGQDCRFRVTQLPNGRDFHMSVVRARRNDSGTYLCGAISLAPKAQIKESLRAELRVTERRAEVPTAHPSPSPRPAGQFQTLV
Sequence of FcγRIIa_H131 (human) (P12318 34-317): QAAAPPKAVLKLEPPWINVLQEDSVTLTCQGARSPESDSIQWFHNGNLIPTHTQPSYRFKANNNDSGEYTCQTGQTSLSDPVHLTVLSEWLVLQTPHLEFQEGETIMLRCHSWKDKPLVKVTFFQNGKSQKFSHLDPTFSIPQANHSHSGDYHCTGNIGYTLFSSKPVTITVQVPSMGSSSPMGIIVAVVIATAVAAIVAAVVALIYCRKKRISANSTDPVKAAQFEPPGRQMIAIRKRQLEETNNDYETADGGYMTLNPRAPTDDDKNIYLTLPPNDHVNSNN
Sequence of FcγRIa (human) (P12314 16-374): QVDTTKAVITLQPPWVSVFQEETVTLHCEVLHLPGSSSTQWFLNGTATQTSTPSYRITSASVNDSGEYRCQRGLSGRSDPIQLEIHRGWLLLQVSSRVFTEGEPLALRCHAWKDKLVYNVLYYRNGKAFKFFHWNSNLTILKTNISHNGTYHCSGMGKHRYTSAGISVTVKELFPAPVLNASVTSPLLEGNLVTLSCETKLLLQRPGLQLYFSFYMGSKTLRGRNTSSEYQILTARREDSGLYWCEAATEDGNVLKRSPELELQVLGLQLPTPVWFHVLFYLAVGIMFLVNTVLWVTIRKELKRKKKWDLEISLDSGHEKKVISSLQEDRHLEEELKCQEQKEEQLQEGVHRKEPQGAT

- Kd (FcγRIa (human)): 8.25 nM
- koff (FcγRIa (human)): 0.00478 s⁻¹
- kon (FcγRIa (human)): 579000 M⁻¹ s⁻¹
- Kd (FcγRIIIa_V158 (human)): 23.5 µM
- koff (FcγRIIIa_V158 (human)): 0.0837 s⁻¹
- kon (FcγRIIIa_V158 (human)): 3560 M⁻¹ s⁻¹
- Kd (FcγRIIa_H131 (human)): 50.7 nM
- koff (FcγRIIa_H131 (human)): 0.013 s⁻¹
- kon (FcγRIIa_H131 (human)): 257000 M⁻¹ s⁻¹
- Kd (FcγRIIa_R131 (human)): 31.3 nM
- koff (FcγRIIa_R131 (human)): 0.011 s⁻¹
- kon (FcγRIIa_R131 (human)): 350000 M⁻¹ s⁻¹
B1: AK105 (hG4), an IgG4 backbone version of penpulimab (antibody, V domains shown)
VH: EVQLVESGGGLVQPGGSLRLSCAASGFAFSSYDMSWVRQAPGKGLDWVATISGGGRYTYYPDSVKGRFTISRDNSKNNLYLQMNSLRAEDTALYYCANRYGEAWFAYWGQGTLVTVSS
VL: DIQMTQSPSSMSASVGDRVTFTCRASQDINTYLSWFQQKPGKSPKTLIYRANRLVSGVPSRFSGSGSGQDYTLTISSLQPEDMATYYCLQYDEFPLTFGAGTKLELK

- Kd [1]: 0.588 nM
- koff [1]: 9.51e-05 s⁻¹
- kon [1]: 162000 M⁻¹ s⁻¹
- Kd (FcγRIIa_R131 (human)): 232 nM
- koff (FcγRIIa_R131 (human)): 0.0938 s⁻¹
- kon (FcγRIIa_R131 (human)): 404000 M⁻¹ s⁻¹
B2: Penpulimab (antibody, V domains shown)
VH: B1 VH
VL: B1 VL
notes: heavy chain variable domain of penpulimab; light chain of penpulimab; Human IgG1 anti-PD-1 antibody with Fc mutations; probably a Fab; also called AK105

- Kd (FcγRIa (human)): 3.35 nM
- koff (FcγRIa (human)): 0.00213 s⁻¹
- kon (FcγRIa (human)): 636000 M⁻¹ s⁻¹
- Kd (FcγRIIIa_F158 (human)): 238 nM
- koff (FcγRIIIa_F158 (human)): 0.04 s⁻¹
- kon (FcγRIIIa_F158 (human)): 168000 M⁻¹ s⁻¹
- Kd (FcγRIIIa_V158 (human)): 0.197 µM
- koff (FcγRIIIa_V158 (human)): 0.0329 s⁻¹
- kon (FcγRIIIa_V158 (human)): 167000 M⁻¹ s⁻¹
- Kd (FcγRIIa_H131 (human)): 57.4 nM
- koff (FcγRIIa_H131 (human)): 0.0267 s⁻¹
- kon (FcγRIIa_H131 (human)): 465000 M⁻¹ s⁻¹
- Kd (FcγRIIa_R131 (human)): 34.6 nM
- koff (FcγRIIa_R131 (human)): 0.0228 s⁻¹
- kon (FcγRIIa_R131 (human)): 660000 M⁻¹ s⁻¹
B3: AK105 (hG1WT), a version of penpulimab with wildtype IgG1 backbone (antibody, V domains shown)
VH: B1 VH
VL: B1 VL
